Measured values from patent US20150031612A1 (YALE UNIVERSITY, published 2015).
Bridge positions count the residues as written; N and C are the ends. Square brackets hold non-standard residues; d marks the D form. Ends that are not written are not given here. S5 = C=CCCC[C@](C)(N)C(=O)O

B1: ^BT1^S (biotinylated analog of T1^S) (peptide)
peptide: VRKRT[S5]RRL[S5]QERELVE
modifications: staple 6-10; also: biotinylated, site not given here
notes: Stapled form of T1, biotinylated for the pull-down

Molecular target: T1, native, full length, EGFR (wtEGFR) (UniProt P00533 25-1210, limits assumed)
T1 construct: whole, on cells; The pull-down used cell lysates, not intact cells; the residue numbers used (L858R, T790M) fit human EGFR; also called wild type EGFR; Epidermal Growth Factor Receptor
Assay: streptavidin-bead pull-down from lysates of wtEGFR-transfected CHO-K1 cells, anti-EGFR immunoblot

Binder	binding result
B1	no binding (tested: 25 µM)
VRKRTLRRLLQERELVE (also: biotinylated, site not given here) [^BJM-WT (biotinylated analog of JM-WT)]	no binding (tested: 25 µM)
